The text below walks through data of publication PMC11417369, “DNA sequence and chromatin differentiate sequence-specific transcription factor binding in the human malaria parasite Plasmodium falciparum”.

The chains are these.
B1: CACACA_negctrl_site213 (dsDNA)
DNA 1: ATAAATATATGGTTTCATTATATTAAATTCAATTTA
DNA 2: TAAATTGAATTTAATATAATGAAACCATATATTTAT
B2: CACACA_negctrl_site1598 (dsDNA)
DNA 1: TATTTTAACATGTTTTCAAAAATAAAACATATAAAT
DNA 2: ATTTATATGTTTTATTTTTGAAAACATGTTAAAATA
B3: CACACA_negctrl_site1416 (dsDNA)
DNA 1: TTTTTTGTACCAAAAAAAAAAAAAAGAAAAAAAAAC
DNA 2: GTTTTTTTTTCTTTTTTTTTTTTTTGGTACAAAAAA
B4: CACACA_negctrl_site1335 (dsDNA)
DNA 1: TAAAATTTTAACAAAAAAAAAAAAAAAAAAAGAAAA
DNA 2: TTTTCTTTTTTTTTTTTTTTTTTTGTTAAAATTTTA
B5: CACACA_negctrl_site1724 (dsDNA)
DNA 1: TTTTTCTTTTTTTTTTTAATAATATATAACAAATTT
DNA 2: AAATTTGTTATATATTATTAAAAAAAAAAAGAAAAA
B6: CACACA_negctrl_site283 (dsDNA)
DNA 1: ACATTCTGATGGTGATTATTAATTATTACAAAAATT
DNA 2: AATTTTTGTAATAATTAATAATCACCATCAGAATGT
B7: CACACA_negctrl_site918 (dsDNA)
DNA 1: TTTTTTTTTTCTTTTTTTCTCATGAAATTCTAAATG
DNA 2: CATTTAGAATTTCATGAGAAAAAAAGAAAAAAAAAA
B8: CACACA_negctrl_site500 (dsDNA)
DNA 1: TAATTAAAAAATAAAAAAAAAAAAAATTAAAACAAA
DNA 2: TTTGTTTTAATTTTTTTTTTTTTTATTTTTTAATTA
B9: CACACA_negctrl_site1228 (dsDNA)
DNA 1: ATATTTTGGGGACTTTTTAAAAAAGAAGTATTAAAA
DNA 2: TTTTAATACTTCTTTTTTAAAAAGTCCCCAAAATAT
B10: CACACA_negctrl_site1769 (dsDNA)
DNA 1: TTTTTACGTAAACAAAATAATTATATAATATTATTT
DNA 2: AAATAATATTATATAATTATTTTGTTTACGTAAAAA
B11: CACACA_negctrl_site81 (dsDNA)
DNA 1: TTCTGTATAATATAAAAACAAAAATTAAATTAAAAC
DNA 2: GTTTTAATTTAATTTTTGTTTTTATATTATACAGAA
B12: CACACA_negctrl_site1402 (dsDNA)
DNA 1: TTATTATTCTTAAGGATATAACAAAAAAGAAAAATT
DNA 2: AATTTTTCTTTTTTGTTATATCCTTAAGAATAATAA
B13: CACACA_negctrl_site466 (dsDNA)
DNA 1: ATAAAAGAATTAAATAATCAAAATGATTATTTTATA
DNA 2: TATAAAATAATCATTTTGATTATTTAATTCTTTTAT
B14: CACACA_negctrl_site152 (dsDNA)
DNA 1: TTTTAAATAATTCGTAATTATAATTATGGAAAAAAG
DNA 2: CTTTTTTCCATAATTATAATTACGAATTATTTAAAA
B15: CACACA_negctrl_site1791 (dsDNA)
DNA 1: TTTTAAAAAAAAAAAATAAATAAATAAGATATTATC
DNA 2: GATAATATCTTATTTATTTATTTTTTTTTTTTAAAA
B16: CACACA_negctrl_site651 (dsDNA)
DNA 1: TTTGGAAAGCGTGATTTTTGACAAACACAAAAAAAA
DNA 2: TTTTTTTTGTGTTTGTCAAAAATCACGCTTTCCAAA
B17: CACACA_negctrl_site427 (dsDNA)
DNA 1: TTTATAAATTCTCTTTTTAAAAAATATTTTTATACT
DNA 2: AGTATAAAAATATTTTTTAAAAAGAGAATTTATAAA
B18: CACACA_negctrl_site731 (dsDNA)
DNA 1: TCTAAACAAATTAATAAAATAAGTATTCAAAATTAT
DNA 2: ATAATTTTGAATACTTATTTTATTAATTTGTTTAGA
B19: CACACA_negctrl_site80 (dsDNA)
DNA 1: TTTAATAAATAAATAAATAAAATATATTAAAAACCA
DNA 2: TGGTTTTTAATATATTTTATTTATTTATTTATTAAA
B20: CACACA_negctrl_site1262 (dsDNA)
DNA 1: ATATAAAGAAATTAATTTTTCAACAATAAAAATATA
DNA 2: TATATTTTTATTGTTGAAAAATTAATTTCTTTATAT
B21: CACACA_negctrl_site801 (dsDNA)
DNA 1: GATTTATATATATAAAATAATTGAATATTTTCTTTT
DNA 2: AAAAGAAAATATTCAATTATTTTATATATATAAATC
B22: CACACA_negctrl_site1736 (dsDNA)
DNA 1: ATTGAAAATTATTTACCTTCTTTGAAAGAACAAATG
DNA 2: CATTTGTTCTTTCAAAGAAGGTAAATAATTTTCAAT
B23: CACACA_negctrl_site454 (dsDNA)
DNA 1: TATTGTAATATTATATATATCTATTATGTATATAAA
DNA 2: TTTATATACATAATAGATATATATAATATTACAATA
B24: CACACA_negctrl_site1666 (dsDNA)
DNA 1: AAAAAAAAAAAAAAATTAAAGTAATGGAAAAAAAAA
DNA 2: TTTTTTTTTCCATTACTTTAATTTTTTTTTTTTTTT
B25: CACACA_negctrl_site575 (dsDNA)
DNA 1: TATTTACAAAAAAAATATAAAAAATATAAAATATAT
DNA 2: ATATATTTTATATTTTTTATATTTTTTTTGTAAATA
B26: CACACA_negctrl_site945 (dsDNA)
DNA 1: ATATAAATAAATTAGTGAAAAAAAAAAAATTTTTTT
DNA 2: AAAAAAATTTTTTTTTTTTCACTAATTTATTTATAT
B27: CACACA_negctrl_site1347 (dsDNA)
DNA 1: ATTTTTTTTTTTTTTTTTTTTTTTTTTTAATCTGGA
DNA 2: TCCAGATTAAAAAAAAAAAAAAAAAAAAAAAAAAAT
B28: CACACA_negctrl_site153 (dsDNA)
DNA 1: CTTGGTAGTTTTTTCTTATAATCTAATTATTAATAA
DNA 2: TTATTAATAATTAGATTATAAGAAAAAACTACCAAG
B29: CACACA_negctrl_site941 (dsDNA)
DNA 1: ATATTACGCACAAAAAAAAAAAAAAAAAAAAAAAAA
DNA 2: TTTTTTTTTTTTTTTTTTTTTTTTTGTGCGTAATAT
B30: CACACA_negctrl_site766 (dsDNA)
DNA 1: TTCTTTCTGTTTTATTTATAATAATTTATGATAAAA
DNA 2: TTTTATCATAAATTATTATAAATAAAACAGAAAGAA
B31: CACACA_negctrl_site1344 (dsDNA)
DNA 1: TTATGTATTCATTTTTTTTAAGCACCCCAAAATGAT
DNA 2: ATCATTTTGGGGTGCTTAAAAAAAATGAATACATAA
B32: CACACA_negctrl_site970 (dsDNA)
DNA 1: ATATTTTTATGTACTTCAAAAAAAAAGAAAAACAAA
DNA 2: TTTGTTTTTCTTTTTTTTTGAAGTACATAAAAATAT
B33: CACACA_negctrl_site362 (dsDNA)
DNA 1: TTATTTTTTCTTTTTTTTCTTACCACAAAAATGGAT
DNA 2: ATCCATTTTTGTGGTAAGAAAAAAAAGAAAAAATAA
B34: CACACA_negctrl_site90 (dsDNA)
DNA 1: TTATAATATATATAAAAGAAAAAAAATTATAATATA
DNA 2: TATATTATAATTTTTTTTCTTTTATATATATTATAA
B35: CACACA_negctrl_site1036 (dsDNA)
DNA 1: ATATTGTATTATCTTTATGTACCAAAAAAAAAAAAA
DNA 2: TTTTTTTTTTTTTGGTACATAAAGATAATACAATAT
B36: CACACA_negctrl_site154 (dsDNA)
DNA 1: TTTTAAAAAATATAATATAATATAATATAAAATAAA
DNA 2: TTTATTTTATATTATATTATATTATATTTTTTAAAA
B37: CACACA_negctrl_site87 (dsDNA)
DNA 1: TCTTTCTAAATCTTACAAATTACTAAAATATTTATA
DNA 2: TATAAATATTTTAGTAATTTGTAAGATTTAGAAAGA
B38: CACACA_negctrl_site1813 (dsDNA)
DNA 1: TTTTTATTCGATGATCAAATAGGTATATACAAAAAA
DNA 2: TTTTTTGTATATACCTATTTGATCATCGAATAAAAA
B39: CACACA_negctrl_site624 (dsDNA)
DNA 1: TTATAATAAATATTCATATGTTCAAATATATATATA
DNA 2: TATATATATATTTGAACATATGAATATTTATTATAA
B40: CACACA_negctrl_site332 (dsDNA)
DNA 1: TCTTTTAAAAATATAAAAAGGAATATATAAAAATGT
DNA 2: ACATTTTTATATATTCCTTTTTATATTTTTAAAAGA
B41: CACACA_negctrl_site648 (dsDNA)
DNA 1: AAAAAGAAAAAATATATTCGTCTATTATAAACAATA
DNA 2: TATTGTTTATAATAGACGAATATATTTTTTCTTTTT

The target of the data set is T1, AP2-LT D1 (Plasmodium falciparum, UniProt Q8IAM1 2520-2577).
T1 sequence: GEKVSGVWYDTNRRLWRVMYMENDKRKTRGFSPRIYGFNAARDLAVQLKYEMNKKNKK
Description: gcPBM; about 25 ug protein; PBS, 1% milk, 0.2 mg/ml BSA, salmon testes DNA, 0.03% Triton X-100. The settings on record: tags: N-terminal GST (pGEX-4T-1), kept; label: surface-attached array probe.
In the case of B1, the binding signal was 8.57 ln median PBM intensity, better of two orientations.

Turning to B2, the binding signal is 8.55 ln median PBM intensity, better of two orientations.

On to B3, for which the binding signal is 8.68 ln median PBM intensity, better of two orientations.

Consider B4, for which the binding signal is 8.69 ln median PBM intensity, better of two orientations.

Regarding B5, the binding signal was 8.68 ln median PBM intensity, better of two orientations.

For B6, the binding signal is 8.72 ln median PBM intensity, better of two orientations.

For B7, the binding signal was 8.68 ln median PBM intensity, better of two orientations.

With B8, the binding signal was 8.72 ln median PBM intensity, better of two orientations.

For B9, the binding signal was 8.57 ln median PBM intensity, better of two orientations.

Turning to B10, the binding signal is 8.71 ln median PBM intensity, better of two orientations.

Turning to B11, the binding signal is 8.74 ln median PBM intensity, better of two orientations.

For B12, the binding signal was 8.6 ln median PBM intensity, better of two orientations.

On to B13, for which the binding signal is 8.6 ln median PBM intensity, better of two orientations.

As for B14, the binding signal was 8.59 ln median PBM intensity, better of two orientations.

As to B15, the binding signal was 8.55 ln median PBM intensity, better of two orientations.

With B16, the binding signal was 8.66 ln median PBM intensity, better of two orientations.

With B17, the binding signal was 8.65 ln median PBM intensity, better of two orientations.

Take B18: the binding signal was 8.64 ln median PBM intensity, better of two orientations.

Turning to B19, the binding signal is 8.65 ln median PBM intensity, better of two orientations.

B20: the binding signal is 8.61 ln median PBM intensity, better of two orientations.

For B21, the binding signal is 8.66 ln median PBM intensity, better of two orientations.

B22: the binding signal was 8.67 ln median PBM intensity, better of two orientations.

With B23, the binding signal was 8.69 ln median PBM intensity, better of two orientations.

As to B24, the binding signal was 8.75 ln median PBM intensity, better of two orientations.

For the molecule B25, the binding signal is 8.62 ln median PBM intensity, better of two orientations.

With B26, the binding signal is 8.67 ln median PBM intensity, better of two orientations.

In the case of B27, the binding signal was 8.7 ln median PBM intensity, better of two orientations.

With B28, the binding signal was 8.73 ln median PBM intensity, better of two orientations.

Regarding B29, the binding signal was 8.56 ln median PBM intensity, better of two orientations.

Turning to B30, the binding signal is 8.74 ln median PBM intensity, better of two orientations.

Turning to B31, the binding signal is 8.67 ln median PBM intensity, better of two orientations.

Take B32: the binding signal is 8.64 ln median PBM intensity, better of two orientations.

In the case of B33, the binding signal is 8.71 ln median PBM intensity, better of two orientations.

As for B34, the binding signal was 8.58 ln median PBM intensity, better of two orientations.

For the molecule B35, the binding signal is 8.63 ln median PBM intensity, better of two orientations.

On to B36, for which the binding signal is 8.59 ln median PBM intensity, better of two orientations.

B37: the binding signal is 8.61 ln median PBM intensity, better of two orientations.

Consider B38, for which the binding signal was 8.69 ln median PBM intensity, better of two orientations.

For B39, the binding signal is 8.56 ln median PBM intensity, better of two orientations.

On to B40, for which the binding signal is 8.73 ln median PBM intensity, better of two orientations.

In the case of B41, the binding signal was 8.72 ln median PBM intensity, better of two orientations.
